From paper PMC9798723

Assays:
[1] = target: synthetic Aβ42CC (amyloid-β 1-42 peptide with A21C/A30C mutations) (human); experiment: SEC-MALS; synthetic Aβ42CC 0.6 mg/mL, 50 min at RT after neutralisation to pH 7.2, then frozen; TSK-GEL G4000SWxl, 20 mM sodium phosphate, 150 mM NaCl, pH 7.4, autosampler 5 °C
[2] = target: synthetic Aβ42CC (amyloid-β 1-42 peptide with A21C/A30C mutations) (human); experiment: SEC-MALS; oligomeric preparations (synthetic Aβ42CC 8 h or 24 h at RT at pH 7.2, or aggregated at RT in PBS at 0.6 mg/mL; recombinant Aβ42CC after concentration or incubation); TSK-GEL G4000SWxl, 20 mM sodium phosphate, 150 mM NaCl, pH 7.4, autosampler 5 °C

synthetic Aβ42CC (amyloid-β 1-42 peptide with A21C/A30C mutations)
percent of the peptide present as 104 kDa oligomers [1]: 20%
oligomer content [2]: > 94%
